What is called Kd is a measure of binding affinity in units of concentration. Low values mean higher affinity, high ones lower affinity.

Residue numbers refer to the chain shown, from its start. Names may count otherwise.

The record followed here is US20130266574A1 (Regeneron, published 2013).

First the molecules themselves.
T1: bovine LPL (bovine, UniProt P11151 29-478)
T1 sequence (looked up): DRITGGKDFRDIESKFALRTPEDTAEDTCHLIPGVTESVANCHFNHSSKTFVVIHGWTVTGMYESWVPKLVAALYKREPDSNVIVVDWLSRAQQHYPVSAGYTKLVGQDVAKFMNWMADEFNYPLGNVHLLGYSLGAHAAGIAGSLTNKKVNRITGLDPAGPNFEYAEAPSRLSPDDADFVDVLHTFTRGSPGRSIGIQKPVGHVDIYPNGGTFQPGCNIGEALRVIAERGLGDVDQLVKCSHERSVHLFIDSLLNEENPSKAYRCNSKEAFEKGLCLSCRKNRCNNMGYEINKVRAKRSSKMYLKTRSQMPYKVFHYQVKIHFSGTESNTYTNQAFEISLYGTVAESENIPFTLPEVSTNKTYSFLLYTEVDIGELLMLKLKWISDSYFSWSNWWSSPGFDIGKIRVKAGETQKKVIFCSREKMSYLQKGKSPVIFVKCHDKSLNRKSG

B1: H1H653P (antibody, V domains shown)
VH: QVQLVESGGGVVQPGRSLRLSCVASGFTFSSYGMHWVRQAPGKGLEWMAVIWYDGSNKYFADSVKDRFTISRDNSKNTLYLQMNTLRPDDTAVYYCVKADAPLLIYGVDVWGQGTTVTVS
VL: DIQMTQSPSSLSASVGDRVTITCRASQGIRNDLGWYQEKPGKAPKRLIYFASSLQSGVPSRFSGSGSGTEFTLTISSLQPEDFATYYCLQHNSYPYTFGQGTKLEIK
notes: Fully human antibody, H1H prefix (human IgG1)
B2: H1H292P (antibody, V domains shown)
VH: EVQLVESGGGLVQPGGSLRLSCVASGFTFSSYDMHWVRQLPGKGLEWVSAIGVAGDTYYPASVKGRFTISRENAKNSLYLQMNSLRAGDTAVYYCARGDSGNYYDGDYFDFWGQGTLVTVSS
VL: DIQMTQSPSTLSASVGDRVTITCRASQSINRWLAWYQQKPGKAPKVLIYKASNLESGVPSRFSGSGSGTEFTLTISSLQPDDFATYYCQQYDSYFRTFGQGTKVEIK
notes: as for B1
B3: H1H285P (antibody, V domains shown)
VH: EVQLVESGGGLVQPGGSLRLSCAASGFTFSRYDMHWVRQVTGKGLEWVSGIGTAGDTYYPGSVKGRFTISRENDKNSLYLQMNSLRVGDTAVYYCARGDSKNYYVGDYFDYWGQGTLVTVSS
VL: B2 VL with I21F, Q27H, N30G, R31N, K50E, N53S, S56D, S93T
notes: as for B1
B4: H1H624P (antibody, V domains shown)
VH: EVQLVESGGGLVQPGGSLRLSCAASEFIFSSYAMNWVRQAPGKGLEWVSVISGSGDSKYYADSVKGRFTISRDNSKNTLYLQMNSLRVEDTAVYYCAKDGKDRYGFYYNFYGMDVWGQGTTVTVS
VL: DIQMTQSPSFLSASVGDRVTITCWASQGISSYLAWYQQKPGKAPKILIYAASTLQSGVPSRFSASGSGTEFTLTISSLQPEDFATYHCQQLNSYPFTFGPGTKVDIK
notes: as for B1
B5: full-length hANGPTL4 (amino acid residues 26-406 of SEQ ID NO:476) with a C-terminal hexa-histidine tag (ligand)
chain: GPVQSKSPRFASWDEMNVLAHGLLQLGQGLREHAERTRSQLSALERRLSACGSACQGTEGSTDLPLAPESRVDPEVLHSLQTQLKAQNSRIQQLFHKVAQQQRHLEKQHLRIQHLQSQFGLLDHKHLDHEVAKPARRKRLPEMAQPVDPAHNVSRLHRLPRDCQELFQVGERQSGLFEIQPQGSPPFLVNCKMTSDGGWTVIQRRHDGSVDFNRPWEAYKAGFGDPHGEFWLGLEKVHSITGDRNSRLAVQLRDWDGNAELLQFSVHLGGEDTAYSLQLTAPVAGQLGATTVPPSGLSVPFSTWDQDHDLRRDKNCAKSLSGGWWFGTCSHSNLNGQYFRSIPQQRQKLKKGIFWKTWRGRYYPLQATTMLIQPMAAEAASHHHHHH
B6: amino acid residues 26-148 of human ANGPTL4 fused in-line to mouse IgG2a (hANGPTL4-mFc) (Fc fusion)
chain: GPVQSKSPRFASWDEMNVLAHGLLQLGQGLREHAERTRSQLSALERRLSACGSACQGTEGSTDLPLAPESRVDPEVLHSLQTQLKAQNSRIQQLFHKVAQQQRHLEKQHLRIQHLQSQFGLLDPGSLEFALERNSGEPRGPTIKPCPPCKCPAPNLLGGPSVFIFPPKIKDVLMISLSPIVTCVVVDVSEDDPDVQISWFVNNVEVHTAQTQTHREDYNSTLRVVSALPIQHQDWMSGKEFKCKVNNKDLPAPIERTISKPKGSVRAPQVYVLPPPEEEMTKKQVTLTCMVTDFMPEDIYVEWTNNGKTELNYKNTEPVLDSDGSYFMYSKLRVEKKNWVERNSYSCSVVHEGLHNHHTTKSFSRTPGK
B7: mANGPTL4-His [R26-S410 of mANGPTL4 (SEQ ID NO: 478) fused with an AS linker to a C-terminal 6-histidine tag] (ligand)
chain: RPAQPEPPRFASWDEMNLLAHGLLQLGHGLREHVERTRGQLGALERRMAACGNACQGPKGKDAPFKDSEDRVPEGQTPETLQSLQTQLKAQNSKIQQLFQKVAQQQRYLSKQNLRIQNLQSQIDLLAPTHLDNGVDKTSRGKRLPKMTQLIGLTPNATHLHRPPRDCQELFQEGERHSGLFQIQPLGSPPFLVNCEMTSDGGWTVIQRRLNGSVDFNQSWEAYKDGFGDPQGEFWLGLEKMHSITGNRGSQLAVQLQDWDGNAKLLQFPIHLGGEDTAYSLQLTEPTANELGATNVSPNGLSLPFSTWDQDHDLRGDLNCAKSLSGGWWFGTCSHSNLNGQYFHSIPRQRQERKKGIFWKTWKGRYYPLQATTLLIQPMEATAASASHHHHHH
B8: H1H236N2 (antibody, V domains shown)
VH: EVQLVESGGGLVQPGRSLRLSCAASGFTFDDYAMHWVRQAPGKGLEWVSGISWNSGSIVYADSVKGRFTISRDNAKNSLYLQMNSLISEDTALYYCAKDESSSSGNWFDPWGQGTLVTVSS
VL: EVVMTQSPATLSVSPGERATLSCRASQSVSSNLAWYQQKPGQAPRLLIYGASTRATGIPARFSGSGSGTEFTLTISSLQSEDFAVYYCQEYNNWITFGQGTRLEIK
B9: H4H268P2 (antibody, human IgG4 S228P, V domains shown)
VH: QVQLQQSGAGLLKPSETLSLTCTVYGGSFSIHHWTWIRHPPGKGLEWIGEINHRGSTNYNPSLKSRVTISIDTSKNQFSLKLSAVTAADTAVYYCARGLRFLDWLSSYFDYWGQGTLVTVSS
VL: DIQMTQSPSSLSASVGDRVTITCRASQGISDYLAWYQQKPGKVPNLLIYAASALQSGVPSRFSGSGSGTDFTLTISSLQPEDVATYYCQNYNTAPLTFGGGTKVEIK
notes: IgG4 version of H1H268P
B10: H4H284P (antibody, human IgG4 S228P, V domains shown)
VH: QVQLVESGGGVVQPGRSLRLSCAASGFTFSSYGMHWVRQAPGKGLEWMAVISFDGGNKNNADSVKGRFTISRDNSKNTLYLQMNSLRAEDTAVYYCAKEGDRSGHPYFYYYGLDVWGQGTTVTVSA
VL: B4 VL with M4L, I46L, A64G, G68E, H87Y, N92H, F96L, P100G, D105E
notes: IgG4 version of H1H284P (constant region replaced)

The first test concerns the target B6. Description: SPR (Biacore T100), hANGPTL4-mFc captured by anti-mouse IgG, antibody injected, 25° C. On the procedure: (§1) Antigen-antibody binding and dissociation were monitored in real time at 25° C. and 37° C. Kinetic analysis was performed to calculate KD and half-life of antigen/antibody complex dissociation.
(In general: Surface plasmon resonance follows binding to a sensor surface in real time, without labels.)
B1 yielded a Kd of 411 pM and a t1/2 of 0.717 h.

As for B2, the equilibrium dissociation constant (Kd) was determined as 136 pM and the t1/2 came out at 1.87 h.

On to B3, for which the affinity, expressed as Kd, was 92.5 pM and the t1/2 was found to be 2.6 h.

In turn, B4 returned a Kd of 1190 pM and a t1/2 of 0.117 h.

The next test has as its target T1, bovine LPL. Description: cell-based or functional assay.
As to B5, the “EC50 (nM) of the ANGPTL4 protein in the LPL assay” value (from here on “EC50 (nM) … in the LPL assay”) was 6 nM.

For the molecule B6, the “EC50 (nM) … in the LPL assay” value stood at 0.5 nM.

Take B7: the “EC50 (nM) … in the LPL assay” value amounted to 0.63 nM.

Another test deals with B6. Description: cell-based or functional assay.
With B1, the “% Inhibition of hANGPTL4 Activity (LPL lipase test), hANGPTL4-mFc (2 nM)” value (shortened to “% Inhibition of hANGPTL4 Activity … (2 nM)”) was 55%.

As for B2, the “% Inhibition of hANGPTL4 Activity … (2 nM)” value was found to be 20%.

As for B3, the “% Inhibition of hANGPTL4 Activity … (2 nM)” value was 28%.

On to B8, for which the “% Inhibition of hANGPTL4 Activity … (2 nM)” value was determined as 13%.

For B4, the “% Inhibition of hANGPTL4 Activity … (2 nM)” value amounted to 62%.

For a further test, the target named is B5. Description: cell-based or functional assay.
On to B1, for which the “% Inhibition of hANGPTL4 Activity (LPL lipase test), hANGPTL4-His (10 nM)” value (from here on “% Inhibition of hANGPTL4 Activity … (10 nM)”) is 48%.

For the molecule B2, the “% Inhibition of hANGPTL4 Activity … (10 nM)” value was 53%.

In the case of B3, the “% Inhibition of hANGPTL4 Activity … (10 nM)” value amounted to 47%.

With B8, the “% Inhibition of hANGPTL4 Activity … (10 nM)” value worked out at 19%.

With B4, the “% Inhibition of hANGPTL4 Activity … (10 nM)” value was 48%.

For another test, the target named is B6. Description: SPR (Biacore), pH 7.4, 25° C., protocol of Example 3. On the procedure:
as §1
Furthermore, a single amino acid substitution was introduced in the framework region 1 of H1H268P (SEQ ID NO:42) to form H4H268P2 (SEQ ID NO:487) in the IgG4 version.
For B9, the Kd was 146 pM and the t1/2 was 3.25 h.

Molecule B10 registered a Kd of 143 pM and a t1/2 of 3.42 h.

The next test addresses B6. Description: SPR (Biacore T100), hANGPTL4-mFc captured by anti-mouse IgG, antibody injected, 37° C. The method, then: as §1
Molecule B1 showed a Kd of 2130 pM and a t1/2 of 0.1 h.

B2 showed a dissociation constant (Kd) of 167 pM and a t1/2 of 1.47 h.

Regarding B3, the affinity, expressed as Kd, was 194 pM and the t1/2 came out at 1.18 h.

For the molecule B4, the Kd was 3710 pM and the t1/2 came out at 0.05 h.

The next test concerns the target B6. Kind of test: cell-based or functional assay. This is another data set of the same source.
On to B9, for which the “IC50 (nM) in the LPL inhibition assay, constant ANGPTL4 2 nM” value amounted to 1.85 nM.

On to B10, for which the “IC50 (nM) in the LPL inhibition assay, constant ANGPTL4 2 nM” value is 1.69 nM.

A further test addresses T1, bovine LPL. Description: cell-based or functional assay. The source holds these as a separate data set.
With B5, the “EC50 (nM) of the ANGPTL4 protein in the LPL inhibition assay” value stood at 4.54 nM.

As for B6, the “EC50 (nM) of the ANGPTL4 protein in the LPL inhibition assay” value was 0.29 nM.

The next test has as its target B5. Description: cell-based or functional assay. The source holds these as a separate data set.
Turning to B9, the “IC50 (nM) in the LPL inhibition assay, constant ANGPTL4 10 nM” value stood at 1.61 nM.

For the molecule B10, the “IC50 (nM) in the LPL inhibition assay, constant ANGPTL4 10 nM” value worked out at 1.19 nM.
